Data on 15 sequences can be found in the DeepSol protein solubility set.

A short description of this data set: soluble on expression in E. coli; label from the status in PepcDB or PDB records.
As to “MGSDKIHHHHHHMITAEECRTYKEFVDLYQSYLYPLLGARLSRMYSPKNKVIIDMGTGPGYLSIQLAKRTNAHVHAVDINPAMHEIAQEEAKKSGVSSLISFDLEDVHHLSYADQYADFIVSYSCLHHWEDVVKGLKECYRVLAPGGKIVILDTFNPQGSHLEIMRKQIKEPEYFRFVREAFEESYSFEDIHQFVQDAGIPNYSLETFHFLPEDFIESLDELEDAPLWEQNDQSTDHEIESVTWMLTIEKEKEGAL”, the “soluble on expression in E. coli” value is listed as “not soluble”.
The result for “MGSDKIHHHHHHASCEDDEVEYAPLAVTRVSTVLDREQGIDQANLAQYIIVQGTGLNAVNSILVNDVQVDLKDAYITSGEITFPIPRVIPGEINNLITLGSGNSTVTAPISVFIPELEVNGMFNEFTPAGDTMKVVGDYFDLYEITTESGQLFFGGKEVKITKSTGNSLSFVLPEDAVMGSKIKLVSPVCGEVTVPGKYMEKGNMLCDFDPFTGWGGSKYVIDGPVPAPYSGYFSRFKINKGDANDWDWNEVTTIAQCAVEYSPEVIADQNKYLLKFEVNTIKPLTKRQIRFYFSQINYDWEPFASGLALNTNGEWKTVSIDLGEMWKGDIPNDGVLQIMGNSWAEDTDICFDNFRIVPKD” reads “not soluble”.
For “MTTMTPDAAGLAALEARLKQDLAWLELPAKSWVPRRVVDGKSVVDVVIVGAGMAGLVASAMLRRLGVDNQLVLDRARAGEEGPWVTFARMRTLRSPKELTGPAMGMPALTFRAFYEAQYGRQAWQALDRAPRTMWMDYLIWYRKVLDLPVRNGVSVERIHARTDELFALDISEGGTSRQILARHVVLATGRDGLGGAYVPSLCDGIDRRFWAHSSAPIDFERLRGRRVAVVGAGASAMDNAAMALEAGAARLDLFIRRADIPRVNKFTGIGSQGVVHGFAGLSDDWKWRFLDHTLKAQTPPPRQSVLRVSAYPQAHFHLASPIDDLAVAGDHLTVTTPKGRYATDFIIFGTGFKVDLALRDELAEFAPHIRFWCDRFPAPDGMDNAELENSPDLGDSFQFLEKEPGACPMLARLHCFNYPATLSHGKLSGDIPAISEGADRLARGIVRRLFVEDREIHFANLKAFATPELAGDEWQDADVTHQPAE”, the “soluble on expression in E. coli” value is “soluble”.
As for “MTTETQADRTQQAVGRIIGSIGVVTTQTTGRHQGILTSWVSQASFTPPGIMLAIPGEFDAYGLAGQNKAFVLNLLQEGRSVRRHFDHQPLPKDGDNPFSRLEHYSTQNGCLILAEALAYLECLVQSWSNIGDHVLVYATVQAGQVLQPNGITLEHHHHHH”, the “soluble on expression in E. coli” value is recorded as “soluble”.
Consider “MAGHVNGTCAPVIPKVGDEEDGVGQLVANLKEKGTNFVLLKKTPQILELQTILKDRFCGKINDFRYFCRKNLLILNKLLFCLKKRFSWNLDFKNPLIHKFSGQKRHFKRFCQIFSDFESKFRYFHKFPGPKRSTNHSDFVFNADRLMRLVIEECLNHLPFTEHTVTTPTGFKYEGIQFNRGNCGVSLCRSGEAMEVSLRQCCRCIRIGKILIGDEQKVLYARLLPDITSRRVLLLYPTIGSGTTVCKAIEVLKEARVPDENIYLVSLFISPTGLKNITRKYPYITVVASDITSLYPNHFSTSYFGAV”, for which the “soluble on expression in E. coli” value was “not soluble”.
“YTIEELVKQADQQFNGNIAELMIATEVEMSGRNREDIIKIMSRNLQVMKAAVTEGLTSTKSISGLTGGDAVKMDNYIKKGNSLSDTTILNAVRNAIAVNELNAKMGLVCATPTAGSAGCLPAVLATAIEKLDLSEKEQLEFLFTAGAFGLVIGNNASISGAEGGCQAE”: the “soluble on expression in E. coli” value is “not soluble”.
The result for “GSHGMSKSPEEEHPVKAFGWAARDQSGHLSPFNFSRRATGEEDVRFKVLYCGVCHSDLHSIKNDWGFSMYPLVPGHEIVGEVTEVGSKVKKVNVGDKVGVGCLVGACHSCESCANDLENYCPKMILTYASIYHDGTITYGGYSNHMVANERYIIRFPDNMPLDGGAPLLCAGITVYSPLKYFGLDEPGKHIGIVGLGGLGHVAVKFAKAFGSKVTVISTSPSKKEEALKNFGADSFLVSRDQEQMQAAAGTLDGIIDTVSAVHPLLPLFGLLKSHGKLILVGAPEKPLELPAFSLIAGRKIVAGSGIGGMKETQEMIDFAAKHNITADIEVISTDYLNTAMERLAKNDVRYRFVIDVGNTLAATKP” reads “soluble”; that for “MSLDSQVLEHVLPSHFAKYDKGGDEFYDLISAFHKSVRGSAPDAALYWYCRILAGGGDPLYVARRLLAIATEDIGNADPRAMQVALNAWDIFQRVGPSEGERAIAQATLYLASAPKSNAVYTAFNQAKHDAAHLPSYPVPEHLRNAPTQIMKELGFGAQYRYAHDEVGAFAAGENYFPEILKTKHYYQPTDRGLEKQIKDKLDYLASQNNQSENKRYDEGHHHHHH”, “soluble”.
The result for “SVEVITHPGVNSNYLSKNLLRSIFGMRLRTWQDGLPVRVFVLPDDAPLHSTFTKQKLNIFPYQLRSAWDRMVYSGTGQAPFVVHTEEEMRARIASTPGAIGYLSGSMINDSVQVVHID” reads “not soluble”; that for “MSLIELWPAIDLIGSTSVRLTEGKYDSEEKMSRSAEESIAYYSQFECVNRIHIVDLIGAKAQYAREFDYIKSLRRLTTKDIEVGGGIRTKSQIMDYFAAGINYCIVGTKGIQDTDWLKEMAHTFPGRIYLSVDAYGEDIKVNGWEEDTELNLFSFVRQLSDIPLGGIIYTDIAKDGKMSGPNFELTGQLVKATTIPVIASGGIRHQQDIQRLASLNVHAAIIGKAAHQASFWEGLEEGHHHHHH”, “soluble”; that for “MIYPDETMLYAPVEWHDCSEGYTDIRYEKSTDGIAKITINRPQVRNAFRPLTVKEMIQALADARYDDNVGVIILTGEGDKAFCAGGDQKVRGDYGGYQDDSGVHHLNVLDFQRQIRTCPKPVVAMVAGYSIGGGHVLHMMCDLTIAAENAIFGQTGPKVGSFDGGWGASYMARIVGQKKAREIWFLCRQYDAQQALDMGLVNTVVPLADLEKETVRWCREMLQNSPMALRCLKAALNADCDGQAGLQELAGNATMLFYMTEEGQEGRNAFNQKRQPDFSKFKRNP”, “not soluble”.
The result for “GPGSMTDYIRDGQAIYDRSFAIIRAEADLRHIPADLEKLAVRVIHACGMVDVANDLAFSEGAGKAGRNALLAGAPILCDARMVAEGITRSRLPADNRVIYTLSDPSVPELAKKIGNTRSAAALDLWLPHIEGSIVAIGNAPTALFRLFELLDAGAPKPALIIGMPVGFVGAAESKDELAANSRGVPYVIVRGRRGGSAMTAAAVNALASERE” reads “soluble”; that for “ILGIKTLLAVYRLFGRKAFDLILKLVMRYYHFTGKSAREASEIYLQNLQRYAAQQNIALPKQLDSYHHLLSFGRTMLDKLAAWQGDFNVDNLTIHGQHHFEEMAQKKQGVLILGSHLGNIELCRALGRRHSHVKINALVFTQHAEQFNAVMKAVNPNSELNLIQVSSMGPDTAILLQQKIEQGEWVVIVGDRTSTSKENRVVWADFLGKPAPFPQGPFMLASVLKAPVYLLFGLRDDEANTPHFNVYFEHFSDQITLPRKERQQALEHVVQQYAHRLEHHTLQAPLQWYNFFNFWTLSNQPHDKQQ”, “not soluble”.
Take “MTDIETIYKKLSHVISKEDFLQRIQEKVENMGGLCDETMAAMLVANELGFSDAGRDSIKIENITPESGPVNFIARIISVFDTKEFTRNDGTIGRVGNLIVGDETGKVKLTLWDNMADLIKMGKIKAGQSVQVSGFAKQGYSGVEVNIGNNGVLTESEEEIDVVSNSYKIKDIKDGMGDINLNGKVLEVSEIRTFQRKDGNSGRVGNLMLGDETGTLRVTLWDDKTDFLSQVEYGDSIELINAYARENAFSQKVELQVGNRSIIRKSEKKIEYEEEFTPIDDIKADMNNINISGRILDISEVRTFEKKDGSTGRVGNVLLGDSTGKIRLTLWDEKTDILEEIDFDETVEVLNAYSRENTFSQQVELNLGARGIIQRSEKKVEYREKFTDIADIIPGESYSIQGKVAEIGELREFEKEDGTENVVANLQLKDDTGSIRLTLWGEQAYVIEDLDIDSEIQIIDAYARYGLNEEIELSVGNRSRVIILLEHHHHHH”: the “soluble on expression in E. coli” value was “soluble”.
The result for “GFRVFIFIILHFVLTNCIREDMSGCPRDDGGLALKFSYDTNADSRLSTAQGVDRLAVFIFDEKGLFISQVNDSMTSINDDYVMELPYKQGSYQFVAWGGYDKSTYQTSECVPRKTYIDDFFLSVKRQEDNQVTNQPKLLYHGMHDIVELNSKEKTIVLINLKQMTNHIRVIAHNLNQDRSDNIYIEDNNGKYGYDSQFSDDDRITYIPIYEASSEQSNPLIADFNVMRLEKDREPWLRIADKTGTIRYDENLIGKLIGGNPNIDFEHNHDFTIEISFDNYIPVIIKINGWEIVNEEI” reads “not soluble”.
